Results: patent EP4644419A1 (Hangzhou Zhongmeihuadong Pharmaceutical Co., Ltd., dated 2025)
Numbering of substitutions follows the chain as printed.

T1: human CD112R antigen protein huCD112R-His (Acro Biosysterm, PVG-H52H4) (human, UniProt Q6DKI7 41-171)
T1 construct: purchased; also called human antigen protein; not shown: His tag
T1 sequence (looked up): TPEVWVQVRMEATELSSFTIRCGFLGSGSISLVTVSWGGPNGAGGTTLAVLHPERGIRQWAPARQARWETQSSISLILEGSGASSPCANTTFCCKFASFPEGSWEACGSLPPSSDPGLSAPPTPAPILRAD

T2: monkey antigen protein (monkey CD112R, Uniprot ID: A0A2K5WVV8) (monkey, UniProt A0A2K5WVV8 41-171)
T2 sequence: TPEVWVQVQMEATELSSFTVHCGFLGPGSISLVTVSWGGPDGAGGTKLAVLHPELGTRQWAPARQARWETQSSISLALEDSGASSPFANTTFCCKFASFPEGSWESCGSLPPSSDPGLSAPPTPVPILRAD

B1: C115 (antibody, human IgG1, kappa, V domains shown)
VH: EVQLQQSGAELVKPGASVKLSCTASGFNIEDTYIHWVKRRPEQGLEWIGGIDPAIGNTLYASKFQDMATITADTSSSTAYMQLSSLTSGDTAVYYCARERVYSNTLYYAMDYWGQGTSVTVSS
VL: DIVLTQSPASLVVSLGQRATISCRASKSVSISGYSYMHWYQQKPGQPPKLLIYLASNLESGVPARFSGSGSGTDFTLNIHPVEAEDAATYYCQHSRELPPTFGGGTNLEIKR
B2: C120 (antibody, human IgG1, kappa, V domains shown)
VH: EVQLQQSGPEVVKPGASVKISCKASGNTLTDYFINWVKQSHGKNLEWIGDINPDNGAGNYNQKFKGKATLTVDKSSGTAFMGLRSLTSEDSAVYYCATLYFDYWGQGTTLTVSS
VL: DIVMTQSPSSLSVSTGEKVTMSCRSSQSLLNSGNQKNYLAWYQQKPGQPPKLLIYGASTRESGVPDRFTGSGSGTDFTLTISSVQAEDLAIYYCQNAHTSPYTFGGGTRLEIKR
B3: C21 (antibody, human IgG1, kappa, V domains shown)
VH: EVQLQQSGAELVKPGASVKLSCTASGFNIKDIYMHWLKQRPEQGLEWIGRVDPTNGNSEYDPRFQGKATLTADTSSNIAYLQLSSLTSEDTAVYYCARFGIYPYFDYWGQGTTLTVSS
VL: SIVMTQTPKFLLVSAGDRVTITCKASQSVNKAVVWYQQKPGQSPKLLINYASNRYTGVPDRFTGSGYGTDFTFSISTVQAEDLAVYFCQQDYSSPWTFGGGTKLEIKR
B4: C125 (antibody, human IgG1, kappa, V domains shown)
VH: EVKLVESGGGLVQPGGSLKLSCAASGFTFSSYTMSWVRQTPEKRLELVAELSNSGGSFHYPDNVKGRFTISRDNAKNTLYLQMSSLKSEDTAMYYCARHNWDVYAMDYWGQGTSVTVSS
VL: DIQMSQSPASLSASVGETVTITCRASENVNSYLAWYQQKQGRSPQFLVYNAQTLAEGVPSRFSGGGSGTQFSLKINSLQPEDFGSYYCQHHYGNPTFGGGTKLEIKR
B5: C56-2 (antibody, human IgG1, kappa, V domains shown)
VH: EVQLVESGGGLVKPGGSLKLSCAASGFTFSDYALSWVRQTPEKRLEWVATIRDGGSYTYYSDNEKGRFTISRDNAKNNLYLQMSHLRSEDTAMYYCTRDQVNRGWFTYWGQGTLVTVSA
VL: QVILTQSPAIMSASLGERVTMTCSASSSVSSSYFHWFQQKPGSSPKLWIYSTSNLASGVPPRFSGSGSGTSYSLTISSMEAEDAATYYCHQHHRSPLTFGAGTKLELKR
B6: C59 (antibody, human IgG1, kappa, V domains shown)
VH: B5 VH with D31G, R87K
VL: B5 VL
B7: C136 (antibody, human IgG1, kappa, V domains shown)
VH: DVQLVESGGGLVKPGGSLKLSCAASGFSFSENYMYWVRQTPEKRLEWVATISDGASYTYYPDNVKGRFTISRDTAKNNLYLQMSHLKSEDTAMYYCTRDELIAPFAYWGQGTLVTVSA
VL: DIVMTQSHKFMSTSVGDRVSITCKASQDVGTAVAWFQQKPGQSPKLLIYWASTRHTGVPDRFTGSGSGTDFTLTISNVQSEDLADYFCQQYNSYPWTFGGGTKLEIKR
B8: C22 (antibody, human IgG1, kappa, V domains shown)
VH: EVQLQQSGPEPVKPGASVKISCKASGYTFTDYNIHWVRQSHGKSLEWIGYIYPYNGGAGYNQKFKSKATLTVDSSSSTAYMELRSLTSEDSAVYYCAREELRRDYGMDYWGQGTSVTVSS
VL: DIQMTQSPASLSASVGETVTITCRASENIYSYLAWYQQKQGKSPQLLVYNAKTLAEGVPSRFSGSGSGTQFSLKINSLQPEDFGSYYCQHHYGTPYTFGGGTKLETKR
B9: C145 (antibody, human IgG1, kappa, V domains shown)
VH: EVQLQQSGPEVVKPGASVRISCKASGNTFTDFFINWVKQSHGKSLEWIGDVNPDSNGANYNQKFKGKATLTVDKSSGTAFMGLRSLTSEDSAVYYCATLFFDNWGQGTTLTVSS
VL: B2 VL with S12N, T15A, R24K, T78I, I91L, T99S, R109K
B10: C23 (antibody, human IgG1, kappa, V domains shown)
VH: QVQLQQSGPELVKPGTSVKISCKASGYTFTDYYINWVKQRPGQGLEWIGWIFPGSGNTYYNEKFKGRATLTVDKSSSTAYMLLSSLTSEDSAVYFCARDGGLRGPFDYWGQGTTLTVSS
VL: DIQMTQSPSSLSASLGGKVTITCKASQDINKYIAWFQHKPGKGPRLLIHFTSTLQSGIPSRFSGSGSGGDYSFSISNLEPEDIATYYCLQYDYLYTFGGGTTLEIKR
B11: C101 (antibody, human IgG1, kappa, V domains shown)
VH: EVQLQQSGPELVKPGSSVKISCEASGFTFADYNVDWVKQSHGKSLEWIGAINPNDGGTSYNQKFEGKATLTVDKSSTTAYMELRSLTSEDSAVYYCARWVNNDWYFDVWGTGTTVTVSS
VL: DIVMTQSQKFMSTSVGDRVSITCKASQNVRSAVDWYQQKPGQSPKTLIHSASNRHTGVPDRFTGSGSGTDFTLTISNIQSEDLADYFCLQHWNYPYTFGGGTKLEVKR
B12: C146 (antibody, human IgG1, kappa, V domains shown)
VH: B11 VH with F27Y, A79V
VL: B11 VL with N53S
B13: C105 (antibody, human IgG1, kappa, V domains shown)
VH: EVQLQQSGPELVKPGSSMKISCKASGYTFTDYSMDWVKQSHGKSLEWIGAINPNNGGTSYNQKFKDKATLTVDRSSSTAYMELRSLTSEDSAVYYCARWDSDYWYFDVWATGTTVTVSS
VL: B11 VL with S31T, T46A, H49Y, I78V, V106I
B14: C28 (antibody, human IgG1, kappa, V domains shown)
VH: QIQLQQSGPELVKPGPSVKISCKASGYTFTDYYINWVKQRPGQGLEWIGWIYPGSGYTKYNEKLKGRATLTVDTSSSTAYMQLSSLTSEDSAVYFCARDSFYAMDYWGQGTSVTVSS
VL: DIVMTQSQKFMSTTVGDRVSITCKASQNVGTAVAWYQQKPGQSPKLLIYSASNRYTGVPDRFTGSGSGTDFTLTITNMQSEDLADYFCLQYSSYLTFGAGTKLELKR
B15: C31 (antibody, human IgG1, kappa, V domains shown)
VH: B14 VH with P16A, N35A, P53L, Y57H, K59M, K63N, L64F, R67K
VL: B14 VL with T76S, L89Q, S93T
B16: C111 (antibody, human IgG1, kappa, V domains shown)
VH: QVQLQQSGPELARPGASVKLSCKASGYTLTSHGISWVKQRTGQGLEWIGEIYPGSESPYYSEKFKGKATLTADKSSNIAYMQLSSLTSEDSAVYFCARSDYSDYWAMDYWGQGTSVTVSS
VL: B11 VL with F10C, D34A, H49Y, S50L, S76T, I78V, Y96W, K103E, V106I
B17: C36 (antibody, human IgG1, kappa, V domains shown)
VH: QIQLVQSGPELKKPGETVKISCKASGYTFTTYGMSWVKQAPGKGLKWMGWINTYSGVPTYADDFKGRFAFSLETSASNAYLQINNLKNEDTATYFCARELPFTTIIGTKDYWGQGTTLTVSS
VL: DIVLIQSPATLSVTPGDSVSLSCRASQFISNNLHWYQQKSHESPRLLIKYASQSISGIPSRFSGGGSGTDFTLTVNSVETEDFGMYFCQQSNSWPHTFGGGTKLEIKR
B18: C113 (antibody, human IgG1, kappa, V domains shown)
VH: EVQLQQSGPELVKPGSSVKISCKASGYTFTDYNLDWMKQSHGSSLEWIGAMSPNNGATSYNQKFKGKATLTVDKSSSTAYMELRSLTSEDSAVYYCARWDSNSWYFDVWGTGTTVTVSS
VL: B11 VL with N28I, S31T, P40S, T46A, H49Y, N53T, S76D, I78V, D85E, V106I
B19: C39 (antibody, human IgG1, kappa, V domains shown)
VH: QAYLQQSGAELVRPGASVKMSCKASGYTFTSYNIHWVKQTPRQGLEWIGAIYPGNADISYNQKFRDKATLTVDKSSSTAYMQLSSLTSEDSAVYFCAKPLRIYAMDCWGQGTSVTVSS
VL: DIVMTQSQKFMSTSVGDRVSVTCKASQNVGTNVAWYQQKPGQSPKALIYSASYRYSGVPDRFTGSGSGTDFTLTISNVQSEDLADYFCQQYNSRPLTFGGGTKLEIKR
B20: C114 (antibody, human IgG1, kappa, V domains shown)
VH: QVQLQQSGAELVRPGTSVKMSCKAAGYTFTNSWINWVKQRPGHGLEWIGDIYPGNTFPNYNEKFKGKATLTADTSSSTAYMQLSSLTSEDSAVYYCTGGYFDVWGTGTTVTVSS
VL: DIVMTQSPSSLSVSAGEKVTMSCKSSQSLLNSGNQKNFLAWYQQKPGQPPKLLIFGASTRQSGVPDRFTGSGSGTDFTLTISSVQAEDLAVYYCQNDHSYPYTFGGGTKLEMKR

Columns and labels:
[1] = target: T1, human CD112R antigen protein …; assay: ELISA, huCD112R-His coated on plate
[2] = target: T2, monkey antigen protein (monkey CD112R, …); assay: ELISA, monkey antigen protein (as Example 6.1)
[3] = target: T1, human CD112R antigen protein …; assay: SPR (Biacore X100), antibody captured on Protein A chip, huCD112R-His as analyte, 1:1 Langmuir

Row | Binder | EC50 [1] [nM] | EC50 [2] [nM] | Kd [3] [nM]
1 | B1 | 0.029 | 0.034 | 0.222
2 | B2 | 0.035 | 0.062 | 0.0769
3 | B3 | 0.066 | 0.068 | 
4 | B4 | 0.049 | 0.079 | 
5 | B5 | 0.032 | 0.044 | 
6 | B6 | 0.044 | 0.049 | 
7 | B7 | 0.039 | 0.06 | 
8 | B8 | 0.029 | 0.125 | 
9 | B9 | 0.038 | 0.042 | 
10 | B10 | 0.06 | 0.125 | 
11 | B11 | 0.043 | 0.085 | 0.0392
12 | B12 | 0.036 | 0.074 | 
13 | B13 | 0.021 | 0.065 | 0.716
14 | B14 | 0.049 | 0.054 | 
15 | B15 | 0.038 | 0.12 | 
16 | B16 | 0.036 | 0.074 | 
17 | B17 | 0.219 | 0.101 | 
18 | B18 | 0.038 | 0.104 | 
19 | B19 | 0.691 | 0.141 | 
20 | B20 | 0.042 | 0.077 | 0.0356
